Results on 1 molecule are retold here after US20130040894A1, “INHIBITION OR ACTIVATION OF SERINE/THREONINE ULK3 KINASE ACTIVITY” (TALLINN UNIVERSITY OF TECHNOLOGY, priority 2009, published 2013).

In one series the target is T1, FLAG-tagged GLI2, P10070.
T1 chain: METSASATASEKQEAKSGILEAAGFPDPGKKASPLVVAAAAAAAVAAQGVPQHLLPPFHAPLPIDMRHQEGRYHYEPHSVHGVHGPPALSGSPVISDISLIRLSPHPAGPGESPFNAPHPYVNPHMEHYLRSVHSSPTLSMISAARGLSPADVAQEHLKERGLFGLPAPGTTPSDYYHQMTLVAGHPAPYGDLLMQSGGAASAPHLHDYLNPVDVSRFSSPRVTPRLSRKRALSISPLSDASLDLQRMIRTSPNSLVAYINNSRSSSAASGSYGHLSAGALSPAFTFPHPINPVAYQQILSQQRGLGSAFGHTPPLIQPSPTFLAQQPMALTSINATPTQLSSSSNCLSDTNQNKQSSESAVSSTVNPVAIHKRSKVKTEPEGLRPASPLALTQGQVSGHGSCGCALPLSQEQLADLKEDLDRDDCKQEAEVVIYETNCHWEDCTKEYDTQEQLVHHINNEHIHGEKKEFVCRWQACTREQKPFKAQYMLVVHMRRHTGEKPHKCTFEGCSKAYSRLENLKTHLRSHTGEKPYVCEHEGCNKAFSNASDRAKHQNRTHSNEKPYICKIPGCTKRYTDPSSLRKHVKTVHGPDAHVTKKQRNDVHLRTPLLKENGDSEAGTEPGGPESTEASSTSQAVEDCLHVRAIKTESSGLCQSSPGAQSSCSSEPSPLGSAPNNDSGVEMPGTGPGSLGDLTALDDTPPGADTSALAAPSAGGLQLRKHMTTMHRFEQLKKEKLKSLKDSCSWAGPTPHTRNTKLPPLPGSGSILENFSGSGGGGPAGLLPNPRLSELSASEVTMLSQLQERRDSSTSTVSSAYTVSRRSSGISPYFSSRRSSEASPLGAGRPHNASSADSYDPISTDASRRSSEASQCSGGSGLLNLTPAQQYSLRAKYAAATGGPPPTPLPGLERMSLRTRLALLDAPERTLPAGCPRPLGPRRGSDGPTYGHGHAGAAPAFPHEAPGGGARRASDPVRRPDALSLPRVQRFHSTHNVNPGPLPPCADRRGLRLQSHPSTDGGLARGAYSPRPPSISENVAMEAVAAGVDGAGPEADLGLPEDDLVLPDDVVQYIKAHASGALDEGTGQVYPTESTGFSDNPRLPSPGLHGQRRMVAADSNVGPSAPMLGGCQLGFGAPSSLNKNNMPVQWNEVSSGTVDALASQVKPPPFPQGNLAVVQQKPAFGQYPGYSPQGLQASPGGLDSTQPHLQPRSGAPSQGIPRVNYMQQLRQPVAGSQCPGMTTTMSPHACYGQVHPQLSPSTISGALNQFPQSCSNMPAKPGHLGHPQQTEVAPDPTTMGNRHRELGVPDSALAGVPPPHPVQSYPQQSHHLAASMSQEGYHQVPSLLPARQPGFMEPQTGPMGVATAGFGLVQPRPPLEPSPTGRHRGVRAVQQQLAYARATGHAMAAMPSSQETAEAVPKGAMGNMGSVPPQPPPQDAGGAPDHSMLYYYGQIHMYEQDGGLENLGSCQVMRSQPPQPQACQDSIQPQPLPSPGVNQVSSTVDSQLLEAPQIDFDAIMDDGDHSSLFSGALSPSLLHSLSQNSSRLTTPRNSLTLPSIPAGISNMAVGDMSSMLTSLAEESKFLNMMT

Series [1] deals with GLI-dependent firefly luciferase activity in Shh-LIGHT2 cells. The series can be described thus: GLI-dependent luciferase assay in Shh-L2 cells. The format is cell-based, mouse. Here is the method:
Cells were transfected by the expression constructs or respective empty vectors using Polyethylenimine transfection agent (PEI) (Inbio) and as described in [28]. We used 0.25 μg of cDNA per 1 cm^2 of plate surface area for transfections. After 3 h of transfection HEK293, NIH3T3 and Cos1 cells were propagated in the normal growth medium for 48 h. Prior the further analysis the cells were washed twice with PBS. Post-transfectional Shh-L2 cells were grown in the normal growth medium for 24 h and for additional 24 h in the Light medium containing 0.25% FBS, washed once with PBS, lysed in Passive Lysis Buffer (Promega, Madison Wis., USA) (70 ul per well of 24-well plate format) and subjected to luciferase assay.
Luciferase assay was performed as previously described. Briefly, firefly luciferase activity of 12 μl of the Shh-L2 cells lysate was measured using Luciferase Assay Kit (Promega) and galactosidase activity was quantified using Galacto-LightPlus kit (Tropix, Bedford Mass., USA) according to the manufacturer's instructions. Chemiluminicence was measured using Ascent FL Fluoroscan (Thermo Electron Corporation, Waltham Mass., USA) according to the manufacturer's instructions.
We cotransfected the constructs together with GLI-expressing plasmids (or respective empty vector) into Shh-L2 cells and assessed their effect on GLI-dependent firefly luciferase activity. The obtained data was normalized with β-galactosidase values. […] It was able to stimulate the luciferase activity 3.8 times and enhanced the transcriptional activity of over expressed GLI1 and GLI2 approximately 2 and 3.2 times, respectively. The potency of STK36 in the assay was much lower.
In order to examine if the kinase activity of ULK3 is required for the luciferase reporter activation we tested the supposed kinase-deficient variants of ULK3, ULK3(K44R) and ULK3(K139R) in the same assay. […] We also tested the effect of ULK3 and the mutants on the luciferase reporter when the SHH pathway was activated by cotransfection with pShhN (plasmid expressing biologically active part of SHH).

The subject of a further series is ULK3. The series can be described thus: In vitro kinase assay, autophosphorylation. Type of series: biochemical, human. Particulars: FLAG-tagged protein immunopurified from HEK293 cells, γ-P32-ATP. As for the experimental part:
(§1) HEK293 cells were transfected with 13.5 μg of FLAG-tagged constructs expressed GLI1, GLI2, GLI3, ULK3, ULK3(K44R), ULK3(K139R) or FLAG-CMV-4 empty vector on 10 cm plates. The cells were lysed with 0.5 ml of Lysis Buffer (50 mM Tris HCl, pH 7.4, 150 mM NaCl, 1 mM EDTA, 1% Triton X-100) containing protease inhibitor cocktail (PIC) (Roche Applied Science). The lysates were centrifuged for 15 min at 4° C. and 15000 g, and the supernatants were used for immunoprecipitation (IP). IP was performed using anti-FLAG-M2 affinity gel (Sigma-Aldrich) in batch format according to the manufacture's instructions. Immune complexes were washed three times with 500 μl of Kinase Buffer (KB) (50 mM HEPES, pH 7.4, 20 mM MgCl2, 25 μM ATP) and resuspended in 12.5 μl of KB. One fifth of the immuno-complexes was subjected to WB and the rest was used for the kinase assay.
Kinase reactions were carried out in KB in a total volume of 20 μl of in the presence of 1 μCi of [γ-^32P]ATP per reaction. We used 1 μl of the immunoprecipitated ULK3, ULK3(K44R) or ULK3(K139R) mixed with 5 μl of the GLI-M2 immunocomplexes or 5 μl of bacterially expressed and purified His-GLI1 fragments. Kinase reactions were held at 30° C. for 30 min and terminated by adding of 5 μl of 4× Laemmli Sample Buffer. Proteins were resolved by SDS-PAGE. The gel was dried at 80° C. for 2 h, and autoradiography was performed using Bio-Rad Personal Molecular Imager FX.
To test if ULK3 has an autophosphorylation activity, we expressed FLAG-tagged wild-type ULK3 and mutants ULK3(K44R) and ULK3(K139R) in HEK293 cells, immunopurified and subjected to in vitro kinase assay in the presence of γ-P^32-ATP.

For the next series, the system named is GLI2. The series can be described thus: In vitro kinase assay, phosphorylation of GLI2. The format is biochemical. Particulars: FLAG-tagged GLI2 immunoprecipitated from HEK293 cells. Here is the method:
as §1
Kinase reactions were carried out in KB in a total volume of 20 μl of in the presence of 1 μCi of [γ-^32P]ATP per reaction. We used 1 μl of the immunoprecipitated ULK3, ULK3(K44R) or ULK3(K139R) mixed with 5 μl of the GLI-M2 immunocomplexes or 5 μl of bacterially expressed and purified His-GLI1 fragments. Kinase reactions were held at 30° C. for 30 min and terminated by adding of 5 μl of 4× Laemmli Sample Buffer. Proteins were resolved by SDS-PAGE. […]

B1: FLAG-tagged ULK3(K44R) (protein)
chain: MAGPGWGPPRLDGFILTERLGSGTYATVYKAYAKKDTREVVAIRCVAKKSLNKASVENLLTEIEILKGIRHPHIVQLKDFQWDSDNIYLIMEFCAGGDLSRFIHTRRILPEKVARVFMQQLASALQFLHERNISHLDLKPQNILLSSLEKPHLKLADFGFAQHMSPWDEKHVLRGSPLYMAPEMVCQRQYDARVDLWSMGVILYEALFGQPPFASRSFSELEEKIRSNRVIELPLRPLLSRDCRDLLQRLLERDPSRRISFQDFFAHPWVDLEHMPSGESLGRATALVVQAVKKDQEGDSAAALSLYCKALDFFVPALHYEVDAQRKEAIKAKVGQYVSRAEELKAIVSSSNQALLRQGTSARDLLREMARDKPRLLAALEVASAAMAKEEAAGGEQDALDLYQHSLGELLLLLAAEPPGRRRELLHTEVQNLMARAEYLKEQVKMRESRWEADTLDKEGLSESVRSSCTLQ
With B1, the “in vitro kinase assay, phosphorylation signal (32P autoradiography)” value in the series with FLAG-tagged GLI2, P10070 was “The mutant ULK3(K44R) could slightly phosphorylate GLI2 (data not shown)”. Moreover, in series [1] (cotransfected with GLI1, Shh-L2 cells), the “enhancement of transcriptional activity of overexpressed GLI1” value is given as “neither of the mutants had an effect”. Also, the “enhancement of transcriptional activity of overexpressed GLI2” value in series [1] (cotransfected with GLI2, Shh-L2 cells) is listed as “some residual activity”. Further, the “induction of luciferase activity with activated SHH pathway” value in series [1] (cotransfection with pShhN, Shh-L2 cells) was determined as 1.7 times. The autophosphorylation activity result in the series with ULK3 is given as “reduced efficiency in autophosphorylation”. Also, the “phosphorylation of GLI2” value in the series on GLI2 is listed as “slightly phosphorylate”.
